Test results taken from publication doi:10.1101/2023.07.18.549252 (bioRxiv, 2023).
Where a chain is given by its changes, count along the chain named. Names may count otherwise.

B1: VHH Z70 mutant 3 (R47K) (VHH)
VHH: EVQLQASGGVFVQSGGSLRLSCAASGATSTFDGMGWFRQAPGKEKEFVSAISYEQGSYTYYADSVKGRFTISRDNSKNMVYLQMNSLRAEDTATYYCAPAYEGDLYAFDSYGGQGTQVTVSS
B2: VHH Z70 mutant 14 (VHH)
VHH: B1 VHH with T30I, K45R, E54G, G113E
B3: VHH Z70 mutant 5 (T96S) (VHH)
VHH: B1 VHH with K45R, T94S
B4: VHH Z70 mutant 9 (P101S + G115E) (VHH)
VHH: B1 VHH with K45R, P99S, G113E
B5: VHH Z70 mutant 1 (G115E) (VHH)
VHH: B1 VHH with K45R, G113E
B6: VHH Z70 mutant 12 (S23C + G115E) (VHH)
VHH: B1 VHH with S21C, K45R, G113E
B7: VHH Z70 mutant 20 (R47K + G115E) (VHH)
VHH: B1 VHH with G113E
B8: VHH Z70 mutant 15 (R90G + P101S + G114E) (VHH)
VHH: B1 VHH with K45R, R88G, P99S, G112E
B9: TAMRA-labelled VHH Z70 mutant 20 (double mutation R47K + G115E) with a terminal cysteine (VHH)
VHH: B1 VHH with G113E
B10: TAMRA-labelled VHH Z70 mutant 3 (R47K) with a terminal cysteine (VHH)
VHH: B1 VHH
B11: VHH Z70 mutant 3 (R47K), Gal4 activation domain fusion prey (VHH)
VHH: B1 VHH
B12: VHH Z70 mutant 12 (S23C + G115E), Gal4 activation domain fusion prey (VHH)
VHH: B1 VHH with S21C, K45R, G113E
B13: VHH Z70 mutant 5 (T96S), Gal4 activation domain fusion prey (VHH)
VHH: B1 VHH with K45R, T94S
B14: VHH Z70 mutant 15 (R90G + P101S + G114E), Gal4 activation domain fusion prey (VHH)
VHH: B1 VHH with K45R, R88G, P99S, G112E
B15: VHH Z70 mutant 14, Gal4 activation domain fusion prey (VHH)
VHH: B1 VHH with T30I, K45R, E54G, G113E
B16: VHH Z70 mutant 9 (P101S + G115E), Gal4 activation domain fusion prey (VHH)
VHH: B1 VHH with K45R, P99S, G113E

Molecular target: Biotinylated Tau 2N4R (Homo sapiens, UniProt P10636-8, biotin (NHS-biotin conjugates, 5 molar excess; sites not stated))
Test: SPR

| Binder | binding result | Kd |
| --- | --- | --- |
| B1 | binds |  |
| B2 | binds |  |
| B3 | binds |  |
| B4 | binds |  |
| B5 |  | 23 nM |
| B6 | binds |  |
| B7 | binds |  |
| B8 | binds |  |

Molecular target: Tau (on the Western blot membrane) (Homo sapiens, UniProt P10636)
Test: far-Western, overlay or dot blot

| Binder | binding result |
| --- | --- |
| B9 | binds |
| B10 | binds |

Molecular target: Tau-LexA (Tau variant 0N4R isoform with a C-terminal LexA fusion) (Homo sapiens, UniProt P10636-6)
Test: two-hybrid

| Binder | binding result |
| --- | --- |
| B11 | binds |
| B12 | binds |
| B13 | binds |
| B14 | binds |
| B15 | binds |
| B16 | binds |

Molecular target: Tau 2N4R (recombinant; 15N-labelled for NMR) (Homo sapiens, UniProt P10636-8)
Test: NMR titration

| Binder | binding result |
| --- | --- |
| B1 | binds |
| B2 | binds |
| B3 | binds |
| B4 | binds |
| B6 | binds |
| B7 | binds |
